The test system of experiment [1] is NK-92 cells. Nature of the experiment: IFNγ induction cellular assay in NK-92 cells (Example 4, used in Example 22C). In kind it is cell-based, human. The note with it: IFNg stimulation in NK92 cells. As to the method: The ability of immunocytokines and IL-18 polypeptides provided herein are assessed for ability to induce IFN[…] in a cellular assay according to the protocol below.
The NK cell line NK-92 derived from a patient with lymphoma (ATCC® CRL-2407™) is cultured in aMEM medium supplemented with 20% FCS, Glutamax, 25 µM B-mercaptoethanol, and 100 IU/mL of recombinant human IL-2.
On the day of experiment, cells are harvested and washed with aMEM medium without IL-2 and containing 1 ng/mL of recombinant human IL-12. After counting, cells are seeded at 100,000 cells/well in a 384 well titer plate and incubated at 37° C./5% CO2. Sixteen 4-fold serial dilutions of IL-18 analytes are prepared in aMEM medium, and 1 ng/mL of IL-12 were added to the NK-92 cells. Final IL-18 analyte concentrations range from 56 nM to 5×10^−5 pM.
After incubating the cells for 16-20 hr at 37° C./5% CO2, 5 μL of supernatant is carefully transferred to a 384 microwell OptiPlate. IFNγ levels are measured using a human IFNγ AlphaLISA Assay Kit. Briefly, 10 μL of 2.5× AlphaLISA Anti-IFNγ acceptor beads and biotinylated antibody anti-IFNγ mix are added to the 5 μL of NK-92 supernatants. The mixtures are incubated for 1 hr at room temperature with shaking. Under subdued light, 2.5 μL of 2× streptavidin (SA) donor beads are pipetted into each well, and the wells are incubated for 30 min at room temperature with shaking. AlphaLISA signals are then measured on an EnSpire™ plate reader using 680 nm and 615 nm as excitation and emission wavelengths, respectively. Half maximal effective concentrations (EC50) are calculated based on a variable slope and four parameter analysis using GraphPad PRISM software.
(§1) The experiments described in Example 4 for determination of IFNg stimulation in NK92 cells (and inhibition by IL-18 BP) were performed substantially as described on IL-18 polypeptides in order to assess their activities and their suitability for incorporation into immunocytokine compositions. It is expected that the IL-18 polypeptides provided below would behave analagously to C086 (SEQ ID NO: 30) when incorporated into an immunocytokine composition as those otherwise provided herein.

The target of the next experiment is T1, human IL-18BP (Homo sapiens, UniProt O95998).
T1 construct: His
T1 sequence (O95998 31-194): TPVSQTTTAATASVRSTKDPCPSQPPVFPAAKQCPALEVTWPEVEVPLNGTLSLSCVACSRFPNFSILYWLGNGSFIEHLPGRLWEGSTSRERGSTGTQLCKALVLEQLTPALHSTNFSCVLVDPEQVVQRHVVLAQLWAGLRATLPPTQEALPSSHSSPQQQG
Nature of the experiment: IL-18BP binding alphaLISA assay (Example 4, used in Example 22B). The note with it: IL-18BP AlphaLISA. As to the method:
A human IL-18BP AlphaLISA Assay Kit is used to determine the binding affinity of each immunocytokine and IL-18 variant for IL-18BP, which detected the presence of free form IL-18BP.
Sixteen three-fold serial dilutions of IL-18 analytes are prepared in aMEM medium supplemented with 20% FCS, Glutamax, and 25 µM β-mercaptoethanol in the presence of 5 ng/mL of His-tagged human IL-18BP. Final IL-18 analytes concentration range from 2778 nM to […].
After 1 hr incubation at room temperature, free IL-18BP levels are measured using a […]. In a 384 well OPTIplate, 5 μL of 5× Anti-IL-18BP acceptor beads are added to 7.5 μL of an IL-18/IL-18BP mix. After 30 min incubation at room temperature with shaking, 5 μL of biotinylated Anti-IL-18BP antibodies are added to each well. The plate is incubated further for 1 hr at room temperature. Under subdued light, 12.5 μL of 2× streptavidin (SA) donor beads are pipetted into each well, and the wells are incubated with shaking for an additional 30 min at room temperature. The AlphaLisa signal is then measured on an Enspire plate reader with 680 and 615 nm as excitation and emission wavelengths, respectively. The dissociation constant (KD) is calculated based on a variable slope, four parameter analysis using GraphPad PRISM software.
An IL-18 binding protein AiphaLISA experiment substantially as described in Example 4 was performed on IL-18 polypeptide which can be incorporated into immunocytokine compositions as provided herein to assess ability to bind to IL-181BP. It is expected that the IL-18 polypeptides provided below would behave analogously to C086 (SEQ ID NO: 30) when incorporated into an immunocytokine composition as those otherwise provided herein.

For experiment [2], the system named is NK-92 cells. Nature of the experiment: IL-18 binding protein inhibition cellular assay in NK-92 cells (Example 4, used in Example 22C). The note with it: inhibition by IL-18BP of IFNg stimulation in NK92 cells. In kind it is cell-based, human. As to the method:
The NK cell line NK-92 derived from a patient with lymphoma (ATCC® CRL-2407™) is cultured in aMEM medium supplemented with 20% FCS-Glutamax, 25 µM B-mercaptoethanol, and 100 IU/mL of recombinant human IL-2.
On the day of experiment, cells are harvested and washed with aMEM medium without IL-2 and containing 1 ng/mL of recombinant human IL-12. After counting, the cells are seeded at 100,000 cells/well in a 384 well titer plate and incubated at 37° C./5% CO2. Sixteen 2-fold serial dilutions of Fc-fused human IL-18 binding protein isoform a (IL-18BPa) are prepared in aMEM medium. 1 ng/mL of IL-12 containing 2 nM of each IL-18 polypeptide variant is added to the NK-92 cells. The final IL-18 analyte concentration is 1 nM, and the final IL-18BPa concentration ranged from 566 nM to […].
After incubating the cells for 16-20 hr at 37° C./5% CO2, 5 μL of the supernatant is carefully transferred to a 384 microwell OptiPlate. IFNγ levels are measured using a human IFNγ AlphaLISA Assay Kit. Briefly, 10 μL of 2.5× AlphaLISA anti-IFNγ acceptor beads and biotinylated antibody anti-IFNγ mix are added to 5 μL of NK-92 supernatants. The mixtures are incubated for 1 hr at room temperature with shaking. Under subdued light, 2.5 μL of 2×SA donor beads are pipetted in each well and incubated for 30 min at room temperature with shaking. AlphaLISA signals are then measured on an EnSpire™ plate reader using 680 nm and 615 nm as excitation and emission wavelengths, respectively. Half maximal inhibitory concentrations (IC50) are calculated based on a variable slope and four parameter analysis using GraphPad PRISM software.
as §1

B1: SEQ ID NO: 68: IL-18 polypeptide: V11I, C38A, M51G, K53A, C76A, C127A (protein)
chain: YFGKLESKLSIIRNLNDQVLFIDQGNRPLFEDMTDSDARDNAPRTIFIISGYADSQPRGMAVTISVKCEKISTLSAENKIISFKEMNPPDNIKDTKSDIIFFQRSVPGHDNKMQFESSSYEGYFLAAEKERDLFKLILKKEDELGDRSIMFTVQNED
In the case of B1, in the experiment with NK-92 cells [1], the EC50 turned out to be 0.037 nM. In addition, the Kd with human IL-18BP amounted to 373 nM. The same molecule came in with an IC50 in the experiment with NK-92 cells [2] of 733 nM.

B2: C153: IL-18 polypeptide: V11I, D37A, C38A, K53A, C76A, C127A (protein)
chain: YFGKLESKLSIIRNLNDQVLFIDQGNRPLFEDMTDSAARDNAPRTIFIISMYADSQPRGMAVTISVKCEKISTLSAENKIISFKEMNPPDNIKDTKSDIIFFQRSVPGHDNKMQFESSSYEGYFLAAEKERDLFKLILKKEDELGDRSIMFTVQNED
Regarding B2, a half-maximal effect in the experiment on NK-92 cells [1] (EC50) was put at 0.175 nM. Moreover, the Kd in the experiment with human IL-18BP came to 4.55 nM. Further, in the experiment with NK-92 cells [2], the IC50 was found to be 2.22 nM.

B3: C147: IL-18 polypeptide: V11I, C38A, K53A, D54A, C76A, C127A (protein)
chain: YFGKLESKLSIIRNLNDQVLFIDQGNRPLFEDMTDSDARDNAPRTIFIISMYAASQPRGMAVTISVKCEKISTLSAENKIISFKEMNPPDNIKDTKSDIIFFQRSVPGHDNKMQFESSSYEGYFLAAEKERDLFKLILKKEDELGDRSIMFTVQNED
In turn, B3 had an EC50 in the experiment on NK-92 cells [1] of 0.079 nM. In the experiment with human IL-18BP, this molecule yielded a Kd of 25.8 nM. This molecule also registered an IC50 with NK-92 cells [2] of 47.6 nM.

B4: C148: IL-18 polypeptide: F2A, V11I, C38A, K53A, C76A, C127A (protein)
chain: YAGKLESKLSIIRNLNDQVLFIDQGNRPLFEDMTDSDARDNAPRTIFIISMYADSQPRGMAVTISVKCEKISTLSAENKIISFKEMNPPDNIKDTKSDIIFFQRSVPGHDNKMQFESSSYEGYFLAAEKERDLFKLILKKEDELGDRSIMFTVQNED
B4 gave an EC50 in the experiment with NK-92 cells [1] of 0.256 nM. Further, in the experiment with human IL-18BP, the Kd was 57.2 nM. For the same molecule, the IC50 in the experiment on NK-92 cells [2] was found to be 5.05 nM.

B5: C152: IL-18 polypeptide: V11I, S36A, C38A, K53A, C76A, C127A (protein)
chain: YFGKLESKLSIIRNLNDQVLFIDQGNRPLFEDMTDADARDNAPRTIFIISMYADSQPRGMAVTISVKCEKISTLSAENKIISFKEMNPPDNIKDTKSDIIFFQRSVPGHDNKMQFESSSYEGYFLAAEKERDLFKLILKKEDELGDRSIMFTVQNED
As for B5, a half-maximal effect in the experiment on NK-92 cells [1] (EC50) was put at 0.033 nM. The same molecule came in with a Kd with human IL-18BP of 1.12 nM. The molecule further registered an IC50 in the experiment on NK-92 cells [2] of 7.85 nM.

B6: C150: IL-18 polypeptide: V11I, T34A, C38A, K53A, C76A, C127A (protein)
chain: YFGKLESKLSIIRNLNDQVLFIDQGNRPLFEDMADSDARDNAPRTIFIISMYADSQPRGMAVTISVKCEKISTLSAENKIISFKEMNPPDNIKDTKSDIIFFQRSVPGHDNKMQFESSSYEGYFLAAEKERDLFKLILKKEDELGDRSIMFTVQNED
B6 registered an EC50 in the experiment with NK-92 cells [1] of 0.015 nM. Further, the Kd with human IL-18BP was 1.24 nM. In the experiment with NK-92 cells [2], the IC50 turned out to be 21.3 nM.

B7: C154: IL-18 polypeptide: V11I, E31A, D37A, C38A, K53A, C76A, C127A (protein)
chain: YFGKLESKLSIIRNLNDQVLFIDQGNRPLFADMTDSAARDNAPRTIFIISMYADSQPRGMAVTISVKCEKISTLSAENKIISFKEMNPPDNIKDTKSDIIFFQRSVPGHDNKMQFESSSYEGYFLAAEKERDLFKLILKKEDELGDRSIMFTVQNED
B7 had an EC50 in the experiment on NK-92 cells [1] of 0.062 nM. Binding with human IL-18BP was characterised by a dissociation constant (Kd) of 2.12 nM. For the same molecule, the IC50 in the experiment with NK-92 cells [2] is 3.71 nM.

B8: C151: IL-18 polypeptide: V11I, D35A, C38A, K53A, C76A, C127A (protein)
chain: YFGKLESKLSIIRNLNDQVLFIDQGNRPLFEDMTASDARDNAPRTIFIISMYADSQPRGMAVTISVKCEKISTLSAENKIISFKEMNPPDNIKDTKSDIIFFQRSVPGHDNKMQFESSSYEGYFLAAEKERDLFKLILKKEDELGDRSIMFTVQNED
As for B8, a half-maximal effect with NK-92 cells [1] (EC50) was put at 0.061 nM. In the experiment with human IL-18BP, this molecule gave a Kd of 2.88 nM. For the same molecule, in the experiment with NK-92 cells [2], the IC50 is 3.62 nM.

B9: C156: IL-18 polypeptide: V11I, C38A, N41A, K53A, C76A, C127A (protein)
chain: YFGKLESKLSIIRNLNDQVLFIDQGNRPLFEDMTDSDARDAAPRTIFIISMYADSQPRGMAVTISVKCEKISTLSAENKIISFKEMNPPDNIKDTKSDIIFFQRSVPGHDNKMQFESSSYEGYFLAAEKERDLFKLILKKEDELGDRSIMFTVQNED
For B9, it took 0.558 nM to reach a half-maximal effect in the experiment on NK-92 cells [1] (EC50). In addition, the affinity with human IL-18BP, expressed as Kd, was 18.5 nM. In the experiment with NK-92 cells [2], the IC50 came to 0.681 nM.

B10: C149: IL-18 polypeptide: V11I, E31A, C38A, K53A, C76A, C127A (protein)
chain: YFGKLESKLSIIRNLNDQVLFIDQGNRPLFADMTDSDARDNAPRTIFIISMYADSQPRGMAVTISVKCEKISTLSAENKIISFKEMNPPDNIKDTKSDIIFFQRSVPGHDNKMQFESSSYEGYFLAAEKERDLFKLILKKEDELGDRSIMFTVQNED
Take B10: the response with NK-92 cells [1] was half-maximal at 0.187 nM (EC50). Besides, the Kd with human IL-18BP was 0.64 nM. The IC50 with NK-92 cells [2] came out at 1.17 nM.

B11: C155: IL-18 polypeptide: V11I, C38A, D40A, K53A, C76A, C127A (protein)
chain: YFGKLESKLSIIRNLNDQVLFIDQGNRPLFEDMTDSDARANAPRTIFIISMYADSQPRGMAVTISVKCEKISTLSAENKIISFKEMNPPDNIKDTKSDIIFFQRSVPGHDNKMQFESSSYEGYFLAAEKERDLFKLILKKEDELGDRSIMFTVQNED
B11: the EC50 in the experiment with NK-92 cells [1] was found to be 0.067 nM. The molecule further registered a Kd in the experiment with human IL-18BP of 0.74 nM. The half-maximal inhibitory concentration (IC50) in the experiment with NK-92 cells [2] was determined as 3.23 nM.

As a reminder, the EC50 is the midpoint of the concentration-response curve. A high value points to lower potency in that assay. Usually Kd stands for the constant that tells how readily two partners part at equilibrium. By IC50 is commonly meant the concentration that inhibits the measured activity by half. Read a low IC50 as greater potency.

Source of the values: patent US20250186597A1, “TARGETED IMMUNE ACTIVATION WITH IL-18 IMMUNOCYTOKINES” (BRIGHT PEAK THERAPEUTICS AG, priority 2023, published 2025).
